Reference: the Immune Epitope Database (IEDB)

How the values were obtained:
HLA-C*06:02 = assay: IEDB peptide-MHC binding, purified MHC/direct/fluorescence; filed as Kd, often an IC50 or EC50 that approximates it; ≥ and ≤ were set here for values at or beyond the usual limits of such assays
HLA-C*08:02 = assay: as above
HLA-A*02:19 [1] = assay: IEDB peptide-MHC binding, purified MHC/competitive/fluorescence; filed as Kd, often an IC50 or EC50 that approximates it; ≥ and ≤ were set here for values at or beyond the usual limits of such assays; settings: source organism: Human immunodeficiency virus type 1 (ELI ISOLATE)
HLA-A*02:11 [2] = assay: as above; settings: source organism: Human immunodeficiency virus type 1 (ELI ISOLATE)
HLA-A*69:01 = assay: as above
HLA-A*02:06 = assay: as above
HLA-A*02:03 = assay: as above
HLA-A*02:01 [3] = assay: as above
HLA-A*02:16 = assay: as above; settings: source organism: Human immunodeficiency virus type 1 (ELI ISOLATE)
HLA-B*15:09 = assay: as above
HLA-B*45:06 = assay: as above
HLA-B*83:01 = assay: as above
HLA-B*15:42 = assay: as above
HLA-C*04:01 = assay: as above
HLA-B*08:01 = assay: as above; settings: source organism: Escherichia coli
HLA-B*15:01 [4] = assay: as above; settings: source organism: Escherichia coli
HLA-B*44:03 = assay: IEDB peptide-MHC binding, purified MHC/competitive/radioactivity; filed as Kd, often an IC50 or EC50 that approximates it; ≥ and ≤ were set here for values at or beyond the usual limits of such assays; settings: source organism: Dengue virus 2 Jamaica/1409/1983
HLA-B*18:01 = assay: IEDB peptide-MHC binding, purified MHC/direct/fluorescence; filed as Kd, often an IC50 or EC50 that approximates it; ≥ and ≤ were set here for values at or beyond the usual limits of such assays
HLA-B*44:02 = assay: as above; settings: source organism: dengue virus type 1
HLA-A*02:19 [5] = assay: as above; settings: source organism: Francisella tularensis subsp. tularensis FSC033
HLA-A*02:11 [6] = assay: as above; settings: source organism: Francisella tularensis subsp. tularensis FSC033
HLA-A*02:12 = assay: as above; settings: source organism: Francisella tularensis subsp. tularensis FSC033
HLA-A*02:01 [7] = assay: as above; settings: source organism: Francisella tularensis subsp. holarctica LVS
HLA-B*39:01 = assay: IEDB peptide-MHC binding, purified MHC/competitive/fluorescence; filed as Kd, often an IC50 or EC50 that approximates it; ≥ and ≤ were set here for values at or beyond the usual limits of such assays; settings: source organism: Vaccinia virus WR
HLA-B*07:02 = assay: IEDB peptide-MHC binding, purified MHC/direct/fluorescence; filed as Kd, often an IC50 or EC50 that approximates it; ≥ and ≤ were set here for values at or beyond the usual limits of such assays; settings: source organism: Camelpox virus M-96
HLA-B*15:17 = assay: as above; settings: source organism: Camelpox virus M-96
HLA-B*51:01 = assay: as above; settings: source organism: Camelpox virus M-96
HLA-B*57:01 = assay: as above; settings: source organism: Camelpox virus M-96
HLA-B*58:01 = assay: as above; settings: source organism: Camelpox virus M-96
HLA-B*15:01 [8] = assay: as above; settings: source organism: Camelpox virus M-96
HLA-A*03:01 = assay: as above; settings: source organism: Camelpox virus M-96
HLA-B*48:01 = assay: as above; settings: source organism: Camelpox virus M-96
HLA-B*27:05 = assay: as above; settings: source organism: Camelpox virus M-96
HLA-B*46:01 = assay: as above; settings: source organism: Camelpox virus M-96
HLA-A*11:01 = assay: as above; settings: source organism: Camelpox virus M-96
HLA-A*01:01 = assay: as above; settings: source organism: Camelpox virus M-96
HLA-A*31:01 = assay: as above; settings: source organism: Camelpox virus M-96
HLA-B*40:01 = assay: as above; settings: source organism: Camelpox virus M-96
[9] = source organism: Mycobacterium tuberculosis C
[10] = source organism: Human immunodeficiency virus type 1 (ELI ISOLATE)
[11] = source organism: Escherichia coli
[12] = source organism: dengue virus type 2
[13] = source organism: Francisella tularensis subsp. tularensis FSC198
[14] = source organism: Vaccinia virus WR

FAPDRVGAL
Kd (HLA-C*06:02; [9]): 1.89 µM
Kd (HLA-C*08:02; [9]): 0.673 µM

FLGRIWPS
Kd (HLA-A*02:19 [1]): 0.0018 µM
Kd (HLA-A*02:11 [2]): ≤ 0.0001 µM
Kd (HLA-A*69:01; [10]): ≥ 5 µM
Kd (HLA-A*02:06; [10]): ≤ 0.0001 µM
Kd (HLA-A*02:03; [10]): 0.00024 µM
Kd (HLA-A*02:01 [3]; [10]): 0.00133 µM
Kd (HLA-A*02:16): ≤ 0.0001 µM
Kd (HLA-B*15:09; [10]): ≥ 20 µM

FVYSVSFHK
Kd (HLA-B*45:06; [9]): ≥ 5 µM
Kd (HLA-B*83:01; [9]): ≥ 5 µM
Kd (HLA-B*15:42; [9]): ≥ 5 µM
Kd (HLA-C*04:01; [9]): ≥ 5 µM

MERFSWHVA
Kd (HLA-B*08:01): ≥ 20 µM
Kd (HLA-B*15:01 [4]): ≥ 20 µM
Kd (HLA-B*45:06; [11]): 4.81 µM
Kd (HLA-B*83:01; [11]): ≥ 5 µM
Kd (HLA-B*15:42; [11]): ≥ 5 µM
Kd (HLA-C*04:01; [11]): ≥ 5 µM

SEMGANFKA
Kd (HLA-B*45:06; [12]): ≥ 5 µM
Kd (HLA-B*83:01; [12]): ≥ 5 µM
Kd (HLA-B*15:42; [12]): ≥ 5 µM
Kd (HLA-C*04:01; [12]): ≥ 5 µM
Kd (HLA-B*44:03): 0.136 µM
Kd (HLA-B*18:01; source organism: dengue virus type 1): 0.119 µM
Kd (HLA-B*44:02): 15.9 µM

YMYQYIQEL
Kd (HLA-C*06:02; [13]): 0.006 µM
Kd (HLA-A*02:19 [5]): 0.002 µM
Kd (HLA-A*02:11 [6]): ≤ 0.001 µM
Kd (HLA-A*02:12): 0.002 µM
Kd (HLA-C*08:02; [13]): 0.736 µM
Kd (HLA-A*02:01 [7]): ≤ 0.001 µM

YPAVINSNI
Kd (HLA-A*69:01; [14]): 0.596 µM
Kd (HLA-A*02:06; [14]): 4.11 µM
Kd (HLA-A*02:03; [14]): 3.82 µM
Kd (HLA-A*02:01 [3]; [14]): ≥ 20 µM
Kd (HLA-B*15:09; [14]): ≥ 20 µM
Kd (HLA-B*39:01): 2.81 µM
Kd (HLA-B*07:02): 0.373 µM
Kd (HLA-B*15:17): ≥ 20 µM
Kd (HLA-B*18:01; source organism: Camelpox virus M-96): ≥ 20 µM
Kd (HLA-B*51:01): 0.296 µM
Kd (HLA-B*57:01): ≥ 20 µM
Kd (HLA-B*58:01): ≥ 20 µM
Kd (HLA-B*15:01 [8]): ≥ 20 µM
Kd (HLA-A*03:01): ≥ 20 µM
Kd (HLA-B*48:01): ≥ 20 µM
Kd (HLA-B*27:05): ≥ 20 µM
Kd (HLA-B*46:01): ≥ 20 µM
Kd (HLA-A*11:01): ≥ 20 µM
Kd (HLA-A*01:01): ≥ 20 µM
Kd (HLA-A*31:01): ≥ 20 µM
Kd (HLA-B*40:01): ≥ 20 µM
